The text below walks through data of the supplement of paper PMC10126150.

± gives the standard deviation of the averaged measurements.
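Further: ATP exposure 15 min at 22 °C before imaging.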

This data set concerns ATP. In words: switch fluorescence ratio, 500 uM ATP over buffer (Cy3 cluster intensity, sum of 5 cycles each) (fold (ratio)); higher = stronger signal-on switching upon ATP binding; sequences stand for … in TCGTCGGCAGCGTCAGATGTGTATAAGAGACAGTTTTTTTTTTTTTTTTTTTTTTTTT…TC. The following applies: aptamer strand: ATP DNA aptamer (quencher-CACCTGGGGGAGTATTGCGGAGGAAGG + anchor), 100 nM annealed; ATP concentration: 500 uM. In outline: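 Cy3-labelled switching-strand clusters on a modified Illumina MiSeq flow-cell were annealed to 100 nM quencher-labelled ATP aptamer and imaged first in selection buffer, then after 15 min with 500 uM ATP at 22 °C. NaOH stripping and re-annealing separated each of five buffer/ATP cycles, and clusters outside 100-1000 RFU were excluded. The fluorescence ratio sums target-cycle Cy3 intensity over buffer-cycle Cy3 intensity per cluster and averages it per switch-domain sequence.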
As to TATAGGGGTG, the switch fluorescence ratio was 1.03 ± 0.039.

For the sequence TGCGGGGGGG, the switch fluorescence ratio came to 1.03 ± 0.038.

As for ATTGTAGGGT, the switch fluorescence ratio was found to be 0.972 ± 0.021.

As for TCTATATGGG, the switch fluorescence ratio is 0.99 ± 0.011.

TTTCCTTTGT: the switch fluorescence ratio worked out at 1.01 ± 0.049.

On to TGATGGTGGG, for which the switch fluorescence ratio is 0.979 ± 0.029.

Take GGATACTCGC: the switch fluorescence ratio is 1.126 ± 0.01.

As for AAAATTATTG, the switch fluorescence ratio was determined as 1 ± 0.022.

In the case of ATATGTTAGT, the switch fluorescence ratio was 0.988 ± 0.011.

On to ATGAGTTTTT, for which the switch fluorescence ratio came out at 1.01 ± 0.054.

ATAACAGGGC: the switch fluorescence ratio was 0.952 ± 0.037.

Turning to ATGAGTGGGG, the switch fluorescence ratio worked out at 1.01 ± 0.029.

ATAGGGCTTG: the switch fluorescence ratio is 0.9746 ± 0.005.

On to GACATTCCCT, for which the switch fluorescence ratio is 1.07 ± 0.016.

Regarding TATATATAAC, the switch fluorescence ratio amounted to 1.006 ± 0.0081.

As for GAGATAGTTT, the switch fluorescence ratio is 0.995 ± 0.042.

For ACCATATTTG, the switch fluorescence ratio is 1.04 ± 0.058.

For CATAAGGGGA, the switch fluorescence ratio was determined as 0.994 ± 0.038.

Take AGTCGAAAGC: the switch fluorescence ratio was found to be 1.01 ± 0.059.

As for CTAAGTAGCC, the switch fluorescence ratio was found to be 1.01 ± 0.015.

Take TAGGGCGACT: the switch fluorescence ratio stood at 1.04 ± 0.049.

Consider GCTCATAAAA, for which the switch fluorescence ratio was found to be 1.001 ± 0.0065.

For the sequence GTGCCTTTGC, the switch fluorescence ratio was found to be 1.11 ± 0.067.

On to GGGCTAATAA, for which the switch fluorescence ratio came to 1.02 ± 0.039.

For GAGATGTCTT, the switch fluorescence ratio is 0.9833 ± 0.0078.

As to AATTGGCTTA, the switch fluorescence ratio was determined as 0.997 ± 0.027.

With GGCTTGGGCG, the switch fluorescence ratio was 0.983 ± 0.061.

With ATTTGAGGGA, the switch fluorescence ratio is 1.13 ± 0.2.

With GGTATTGAGT, the switch fluorescence ratio was found to be 0.992 ± 0.03.

TGGTTGTTAG: the switch fluorescence ratio amounted to 1.012 ± 0.0073.

As to GCGGGGTGTT, the switch fluorescence ratio stood at 1.03 ± 0.013.

As to TTATTAGATG, the switch fluorescence ratio came to 0.997 ± 0.018.

Take GGGTTGCTGG: the switch fluorescence ratio was 1 ± 0.03.

Regarding TTTTAGTTAC, the switch fluorescence ratio amounted to 1.073 ± 0.0044.

Regarding GGGGGGAAGT, the switch fluorescence ratio was found to be 1.01 ± 0.022.

With GTGTTGCCGA, the switch fluorescence ratio was found to be 1 ± 0.079.

For the sequence TCTTTACAGG, the switch fluorescence ratio was determined as 1.09 ± 0.067.

On to CCCGGTTTTA, for which the switch fluorescence ratio was found to be 1.06 ± 0.12.

Take TGGGAGAGTT: the switch fluorescence ratio worked out at 0.993 ± 0.023.

GCACGCGAAG: the switch fluorescence ratio came to 1.04 ± 0.024.

For the sequence CGGATTATTT, the switch fluorescence ratio amounted to 0.984 ± 0.037.

In the case of GGGTGCCGTG, the switch fluorescence ratio turned out to be 1.03 ± 0.047.

Regarding TGATTGAATG, the switch fluorescence ratio came to 0.9785 ± 0.001.

GGGAATCGGT: the switch fluorescence ratio is 0.978 ± 0.058.

Regarding AACCTTTTTT, the switch fluorescence ratio worked out at 1.03 ± 0.0037.

Regarding TTTGCTTAAC, the switch fluorescence ratio was 1.07 ± 0.13.

As to GCGAGAATAT, the switch fluorescence ratio was 1.03 ± 0.043.

For the sequence GGTTGAGGG, the switch fluorescence ratio turned out to be 0.997 ± 0.001.

Take GGTAATTTGA: the switch fluorescence ratio came out at 0.989 ± 0.024.

Take TATGTTGTCC: the switch fluorescence ratio came to 0.977 ± 0.018.

With AGGAGCGCGG, the switch fluorescence ratio amounted to 1.027 ± 0.003.

As to ATAGCTATAA, the switch fluorescence ratio worked out at 1.003 ± 0.0029.

Regarding GCGTGGAGGG, the switch fluorescence ratio turned out to be 1.013 ± 0.0029.

Turning to TTGTAGAGGG, the switch fluorescence ratio is 1.01 ± 0.029.

As for CTAATTGAAC, the switch fluorescence ratio was found to be 1.009 ± 0.0032.

As to TTTGTTGTAA, the switch fluorescence ratio is 1.01 ± 0.034.

Regarding TATGTTCACG, the switch fluorescence ratio was 0.9924 ± 0.0042.

With TTTGAAAATG, the switch fluorescence ratio worked out at 1.01 ± 0.035.

Regarding TTTGTTGTTG, the switch fluorescence ratio is 0.984 ± 0.03.

For AATTTTTGAG, the switch fluorescence ratio was determined as 0.988 ± 0.024.

Regarding TTGGTGTGTC, the switch fluorescence ratio came to 1.04 ± 0.07.

For the sequence GGGACGGAAC, the switch fluorescence ratio turned out to be 1.12 ± 0.03.

In the case of AATAAATCAT, the switch fluorescence ratio came to 0.992 ± 0.024.

As for GTTACTGCTG, the switch fluorescence ratio came to 1.03 ± 0.043.

TTTGACAGTG: the switch fluorescence ratio came to 0.966 ± 0.071.

For the sequence ACGGGTCGGA, the switch fluorescence ratio worked out at 1 ± 0.027.
